In patent US20230151111A1 (AKESO BIOPHARMA, published 2023):

T1: CD73 on cell membrane surface (MDA-MB-231, U87-MG) (human, UniProt P21589 27-549)
T1 construct: whole, on cells; also called NT5E
T1 sequence (looked up): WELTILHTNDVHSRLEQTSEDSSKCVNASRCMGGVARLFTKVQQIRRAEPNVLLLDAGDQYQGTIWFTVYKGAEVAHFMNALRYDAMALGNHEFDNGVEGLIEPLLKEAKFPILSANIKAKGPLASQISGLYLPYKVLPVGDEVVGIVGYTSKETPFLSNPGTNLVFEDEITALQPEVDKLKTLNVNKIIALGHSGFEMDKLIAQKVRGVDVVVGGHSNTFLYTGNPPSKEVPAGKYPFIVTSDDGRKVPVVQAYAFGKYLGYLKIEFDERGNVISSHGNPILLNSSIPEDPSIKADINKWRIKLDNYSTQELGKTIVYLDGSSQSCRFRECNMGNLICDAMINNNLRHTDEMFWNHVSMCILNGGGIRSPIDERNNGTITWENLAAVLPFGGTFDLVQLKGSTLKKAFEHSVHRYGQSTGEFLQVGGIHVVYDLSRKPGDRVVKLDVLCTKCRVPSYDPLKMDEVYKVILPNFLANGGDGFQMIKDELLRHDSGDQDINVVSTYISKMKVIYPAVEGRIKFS

T2: human NT5E-Biotin (human, UniProt P21589 27-552, limits assumed, biotin label, site not stated)
T2 construct: Captured on streptavidin-coated plates; also called human NTSE-Biotin
T2 sequence (looked up): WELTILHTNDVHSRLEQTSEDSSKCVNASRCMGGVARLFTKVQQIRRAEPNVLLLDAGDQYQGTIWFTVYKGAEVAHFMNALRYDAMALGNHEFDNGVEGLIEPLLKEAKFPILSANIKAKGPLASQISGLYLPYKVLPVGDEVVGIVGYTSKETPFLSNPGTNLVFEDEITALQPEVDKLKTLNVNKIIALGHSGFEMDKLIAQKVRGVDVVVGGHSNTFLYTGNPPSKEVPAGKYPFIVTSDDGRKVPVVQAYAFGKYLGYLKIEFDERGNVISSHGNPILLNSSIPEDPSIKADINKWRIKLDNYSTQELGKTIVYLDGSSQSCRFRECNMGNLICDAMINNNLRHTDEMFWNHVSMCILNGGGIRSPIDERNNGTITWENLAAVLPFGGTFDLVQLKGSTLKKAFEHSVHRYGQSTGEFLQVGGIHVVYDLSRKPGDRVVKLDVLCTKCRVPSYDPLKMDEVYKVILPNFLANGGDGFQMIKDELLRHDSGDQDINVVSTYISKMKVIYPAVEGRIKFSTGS


Tests used:
[1] = target: T1, CD73 on cell membrane surface …; experiment: flow cytometry, MDA-MB-231 cells; antibody 0.14 nM
Method: (§1) MDA-MB-231 cells in logarithmic phase were digested with conventional trypsin and transferred to a 1.5 mL centrifuge tube at 3×10⁵ cells/tube. 500 μL of PBSA was added, and the mixture was centrifuged at 5600 rpm for 5 min to remove the supernatant. […] The system was mixed gently and uniformly, and then was incubated on ice for 1 h. Then 500 μL of PBSA was added, and the mixture was centrifuged at 5600 rpm for 5 min to remove the supernatant. […] 500 μL of PBSA was added, and the mixture was centrifuged at 5600 rpm for 5 min to remove the supernatant. At last, 200 μL of PBSA was added to resuspend cell precipitates, and the mixture was transferred to a flow tube for FACSCalibur detection.

[2] = target: T1, CD73 on cell membrane surface …; experiment: flow cytometry, MDA-MB-231 cells; antibody 0.05 nM
Method: as §1

[3] = target: T1, CD73 on cell membrane surface …; experiment: flow cytometry, MDA-MB-231 cells; antibody 3.70 nM
Method: as §1

human NT5E-Biotin = target: T2, human NT5E-Biotin; experiment: ELISA, NT5E-biotin on streptavidin
Method: A microplate was coated with streptavidin at 2 μg/mL and then incubated at 4° C. overnight. After incubation, the microplate coated with streptavidin was washed once with PBST, and blocked with a PBS solution containing 1% BSA as a microplate blocking solution at 37° C. for 2 h. After blocking, the microplate was washed 3 times with PBST. Then, 0.5 μg/mL antigen human NTSE-Biotin was added and incubated at 37° C. for 30 min. Then, the plate was washed 3 times with PBST. The antibodies serially diluted with PBST solution (the dilution gradients for the antibody are shown in Table 3) were added to wells of the microplate. The microplate containing the test antibodies was incubated at 37° C. for 30 min, and then washed 3 times with PBST. […] After incubation, the plate was washed 4 times with PBST, TMB (Neogen, 308177) was added in the dark for chromogenesis for 5 min, and then a stop solution was added to terminate chromogenic reaction. The microplate was put into a microplate reader immediately, and the OD value of each well in the microplate was read at 450 nm. The data were analyzed and processed by SoftMax Pro 6.2.1.

[4] = target: T1, CD73 on cell membrane surface …; experiment: flow cytometry, MDA-MB-231 cells; antibody 100.00 nM
Method: as §1

[5] = target: T3, PD-1 on 293T-PD1 cell surface (human, UniProt Q15116 25-288); experiment: flow cytometry, 293T-PD1 cells; antibody 33.33 nM
T3 construct: whole, on cells
T3 sequence (Q15116 25-288): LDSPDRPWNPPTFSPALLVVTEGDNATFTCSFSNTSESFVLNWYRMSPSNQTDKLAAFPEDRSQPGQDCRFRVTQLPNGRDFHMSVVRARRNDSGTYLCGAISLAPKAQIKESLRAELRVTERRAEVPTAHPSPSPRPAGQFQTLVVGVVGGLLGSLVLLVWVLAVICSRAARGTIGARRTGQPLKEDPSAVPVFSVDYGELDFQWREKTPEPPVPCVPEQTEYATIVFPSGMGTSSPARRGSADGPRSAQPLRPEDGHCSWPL
Method: as §1, with “500” for “MDA-MB-231 cells in logarithmic phase were digested with conventional trypsin and transferred to a 1.5 mL centrifuge tube at 3×10⁵ cells/tube. 500”

PD-1-mFc = target: T4, PD-1-mFc (human, UniProt Q15116 25-170, limits assumed); experiment: ELISA, PD-1-mFc coated
T4 construct: also called human PD-1-mFc
T4 sequence (Q15116 other isoform, or with tags, fused parts or gaps limits assumed): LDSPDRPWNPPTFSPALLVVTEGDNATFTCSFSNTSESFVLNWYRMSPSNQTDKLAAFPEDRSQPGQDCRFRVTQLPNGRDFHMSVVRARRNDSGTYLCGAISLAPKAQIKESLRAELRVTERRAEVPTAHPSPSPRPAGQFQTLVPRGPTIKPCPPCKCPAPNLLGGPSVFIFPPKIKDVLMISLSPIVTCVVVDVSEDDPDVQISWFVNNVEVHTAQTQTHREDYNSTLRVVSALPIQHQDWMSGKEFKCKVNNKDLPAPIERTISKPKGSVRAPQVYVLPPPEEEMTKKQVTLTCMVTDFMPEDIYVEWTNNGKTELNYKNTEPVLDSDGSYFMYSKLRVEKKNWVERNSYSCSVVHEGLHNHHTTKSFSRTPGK
Method: A microplate was coated with PD-1-mFc at 0.5 μg/mL and incubated at 4° C. overnight. Then the microplate coated with antigens was washed once with PBST, and then blocked with a PBS solution containing 1% BSA as blocking solution at 37° C. for 2 h. After blocking, the microplate was washed 3 times with PBST. The microplate containing the test antibodies was incubated at 37° C. for 30 min, and then washed 3 times with PBST. […] After incubation, the plate was washed 4 times with PBST, TMB (Neogen, 308177) was added in the dark for chromogenesis for 5 min, and then a stop solution was added to terminate chromogenic reaction. The microplate was put into a microplate reader immediately, and the OD value of each well in the microplate was read at 450 nm. The data were analyzed and processed by SoftMax Pro 6.2.1,

Binder	FACS signal [1]	FACS signal [2]	FACS signal [3]	EC50 (human NT5E-Biotin) [nM]	FACS signal [4]	FACS signal [5]	EC50 (PD-1-mFc) [nM]
P1D7V01 (bispecific antibody, human IgG1, kappa, Morrison form IgG-scFv) heavy: not shown light: DIQMTQSPSSMSASVGDRVTFTCRASQDINTYLSWFQQKPGKSPKTLIYRANRLVSGVPSRFSGSGSGQDYTLTISSLQPEDMATYYCLQYDEFPLTFGAGTKLELKRTVAAPSVFIFPPSDEQLKSGTASVVCLLNNFYPREAKVQWKVDNALQSGNSQESVTEQDSKDSTYSLSSTLTLSKADYEKHKVYACEVTHQGLSSPVTKSFNRGEC	38	23.4	572	0.063	706	479	0.078
P1D7V03 (bispecific antibody, human IgG1, kappa, Morrison form IgG-scFv) heavy: not shown light: DIQMTQSPSSMSASVGDRVTFTCRASQDINTYLSWFQQKPGKSPKTLIYRANRLVSGVPSRFSGSGSGQDYTLTISSLQPEDMATYYCLQYDEFPLTFGAGTKLELKRTVAAPSVFIFPPSDEQLKSGTASVVCLLNNFYPREAKVQWKVDNALQSGNSQESVTEQDSKDSTYSLSSTLTLSKADYEKHKVYACEVTHQGLSSPVTKSFNRGEC	44	17	458	0.068	678	808	0.075
